Laboratory results from US8404647B2, “Peptidylarginine deiminase (PAD) inhibitors” (Chiralix B.V., priority 2008, dated 2013).
Marks after values point to notes of the source that are not given here. Ends that are not written are not given here.

Tests used:
Assay type in all cases: biochemical
[1] = target: T1, PAD2 (Homo sapiens, UniProt Q9Y2J8); assay: Citrullination of synthetic peptides by recombinant human PAD2 (MALDI-TOF and ESI-Q-TOF mass spectrometry); set-up: His6; made in house; conditions: for PAD2 conversion: Arg: share of peptide still unconverted (Arg); for PAD2 conversion: 1 Cit: share of peptide with one citrulline; for PAD2 conversion: 2 Cit: share of peptide with two citrullines
Method: (§1) Subsequently, the citrullinated proteins were isolated from the cell lysates by immunoaffinity purification using the RA3 single chain antibody fragment (scFv), which is specific for citrullinated epitopes {Raats et al., 2003}. After digestion of the purified proteins with trypsin, the amino acid sequence of the resulting peptides was determined by tandem mass spectrometry. Based upon the mass spectrometry data the peptides containing citrullinated residues were identified. In total 90 and 57 citrullinated peptides were identified in proteins derived from the COS-1 cells expressing PAD2 and PAD4, respectively, and 107 and 38 citrullinated peptides were obtained from HEK-293 cell material for PAD2 and PAD4, respectively. The frequency of amino acids at each of the positions between 5 residues N-terminal and 5 residues C-terminal from a citrullinated residue was derived from the combined sequences of these sites and is illustrated in Table 1. […] The efficiency by which these peptides were citrullinated by the human PAD2 and PAD4 enzymes was investigated by incubating them with the bacterially expressed, His6-tagged and IMAC purified, recombinant enzymes, followed by analysis of the products by both MALDI-TOF and ESI-Q-TOF mass spectrometry.

[2] = target: T2, PAD4 (Homo sapiens, UniProt Q9UM07); assay: Citrullination of synthetic peptides by recombinant human PAD4 (MALDI-TOF and ESI-Q-TOF mass spectrometry); set-up: His6; made in house; conditions: for PAD4 conversion: Arg: share of peptide still unconverted (Arg); for PAD4 conversion: 1 Cit: share of peptide with one citrulline; for PAD4 conversion: 2 Cit: share of peptide with two citrullines
Method: as §1

[3] = target: T2, PAD4; assay: Conversion (R to Cit) of substrate peptides by PAD4, mass spectrometry; conditions: for Conversion by PAD4 (%): Table 10; for Conversion (%): Table 5, peptides with two additional N-terminal F-residues, PAD4; for Conversion: Table 7, PAD4, test system with 3 times less enzyme
Excerpt: From previous studies it was known that D-S-Q-F-A-F-R-G-A-S-A-S-D (designated here as L1: SEQ ID NO: 11) is a substrate for PAD2 and PAD 4. To obtain better substrates, and subsequently powerful inhibitors, we intended to identify structural elements that improve substrate properties. A set of 152 individual analog peptides was generated, each differing from L1 by one amino acid at one of the positions −4 to −1 or 1 to 4.
In Table 3 the conversion of each analog (R to Cit conversion) is depicted. Values of the analogs relate to the conversion of the analog compared to the conversion of L1 under standard conditions (100 means a conversion equal to L1, 50 means conversion of 50% of that of L1, 175 means conversion of 175% of that of L1). Numbers above 100 thus relate to amino acid substitutions that improve substrate properties.
Peptides of table 4 are represented by the following sequences SEQ ID NO: 22-31 and 33-46. Control peptide are represented by the following sequences SEQ ID NO: 11 as control L1 and SEQ ID NO: 32 as control L2. Unfortunately, a substantial number of designed peptides were too polar to be analyzed on our LC-MS system (indicated in Table 4 as n.t., not trapped on the column). We therefore also generated and tested these peptides containing two additional N-terminal F-residues to increase hydrophobicity. In this form peptides were trapped on the column and could be analyzed (see Table 5).
Based on the above results we designed 20 peptides containing multiple amino acids that improve substrate properties (see Table 7). The indicated peptides were synthesized and tested in order to identify the best substrate from this group. Here we used a test system with less enzyme (3 times less) compared to the experiments described above.
(§2) Conversion of arginine into citrulline in the substrate peptides by PAD2 or PAD4 using mass spectrometry was performed as follows. A candidate substrate peptide was incubated with a PAD as indicated for several hours at 37° C. The reaction was quenched by the addition with acetic acid. A sample was analysed on a Qtof mass spectrometer (Micromass, UK) and the mass spectrum was compared with that of the same peptide not treated with PAD. Normally, 2^+- and 3^+-ions are detected. The conversion (ΔM=0.98 Da) was calculated on the 2^+- and 3^+-ions individually, and subsequently averaged taking into account the relative peak height of the 2^+- and 3^+-signals (see FIG. 5).

[4] = target: T1, PAD2; assay: Conversion (R to Cit) of substrate peptides by PAD2, mass spectrometry; conditions: Table 10
Method: In a similar fashion as for PAD4 we identified improved peptide substrates for PAD2. Again L1 was used as a lead compound. The set of 152 peptides from Table 3 was used and testing was performed as described before.
as §2

T1 sequence (Q9Y2J8 whole entry, the tested form may be a part): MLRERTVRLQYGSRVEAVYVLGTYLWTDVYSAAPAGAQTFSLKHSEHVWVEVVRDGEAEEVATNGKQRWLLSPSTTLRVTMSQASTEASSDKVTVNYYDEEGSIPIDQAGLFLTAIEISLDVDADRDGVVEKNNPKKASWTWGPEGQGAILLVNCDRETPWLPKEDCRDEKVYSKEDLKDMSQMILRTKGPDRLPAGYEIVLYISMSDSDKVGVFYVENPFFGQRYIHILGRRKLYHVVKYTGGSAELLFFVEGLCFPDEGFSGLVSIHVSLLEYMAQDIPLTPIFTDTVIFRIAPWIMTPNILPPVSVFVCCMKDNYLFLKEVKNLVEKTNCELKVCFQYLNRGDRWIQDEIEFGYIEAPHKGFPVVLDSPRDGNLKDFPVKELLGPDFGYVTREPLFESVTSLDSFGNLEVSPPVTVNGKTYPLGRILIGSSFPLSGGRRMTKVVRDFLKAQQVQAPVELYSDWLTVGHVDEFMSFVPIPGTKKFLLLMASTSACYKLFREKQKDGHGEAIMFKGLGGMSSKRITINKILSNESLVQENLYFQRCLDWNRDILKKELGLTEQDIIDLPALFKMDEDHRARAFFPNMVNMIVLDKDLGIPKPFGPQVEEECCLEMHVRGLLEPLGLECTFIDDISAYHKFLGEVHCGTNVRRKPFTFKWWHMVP
T2 sequence (Q9UM07 whole entry): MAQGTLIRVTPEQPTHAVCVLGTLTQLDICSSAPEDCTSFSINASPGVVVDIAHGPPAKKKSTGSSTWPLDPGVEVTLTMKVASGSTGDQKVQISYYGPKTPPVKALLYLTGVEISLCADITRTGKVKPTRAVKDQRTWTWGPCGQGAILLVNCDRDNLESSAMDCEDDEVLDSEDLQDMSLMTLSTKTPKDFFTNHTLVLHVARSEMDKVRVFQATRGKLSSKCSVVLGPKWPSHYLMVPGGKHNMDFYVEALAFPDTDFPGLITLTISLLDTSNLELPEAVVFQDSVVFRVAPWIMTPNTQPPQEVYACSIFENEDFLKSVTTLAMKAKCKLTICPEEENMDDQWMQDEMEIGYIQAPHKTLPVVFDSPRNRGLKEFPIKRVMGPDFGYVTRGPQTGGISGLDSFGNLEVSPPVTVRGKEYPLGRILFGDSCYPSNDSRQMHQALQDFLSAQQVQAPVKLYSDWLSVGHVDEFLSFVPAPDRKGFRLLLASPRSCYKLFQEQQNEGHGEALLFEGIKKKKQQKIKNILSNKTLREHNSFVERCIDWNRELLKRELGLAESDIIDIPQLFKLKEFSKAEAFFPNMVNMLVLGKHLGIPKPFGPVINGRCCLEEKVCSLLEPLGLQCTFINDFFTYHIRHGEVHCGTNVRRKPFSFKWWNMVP

Row | Substance | PAD2 conversion: Arg [1] | PAD2 conversion: 1 Cit [1] | PAD4 conversion: Arg [2] | PAD4 conversion: 1 Cit [2] | PAD2 conversion: 2 Cit [1] | PAD4 conversion: 2 Cit [2] | Conversion by PAD4 (%) [3] | Conversion by PAD2 (%) [4] | Conversion (%) [3] | Conversion [3]
1 | DSEGTWRKGPEAD [SEQ ID NO: 8] | 15% | 85% | 85% | 15% | – | – | – | – | – | –
2 | DGYGGSRDSYSSS [SEQ ID NO: 3] | 54% | 46% | 97% | 3% | – | – | – | – | – | –
3 | IEIITDRQSGKKR [SEQ ID NO: 7] | 5% | 70% | 2% | 88% | 25% | 10% | – | – | – | –
4 | DSSEELRGGGKSD [SEQ ID NO: 9] | 43% | 57% | 93% | 7% | – | – | – | – | – | –
5 | IEIMTDRGSGKKR [SEQ ID NO: 5] | 6% | 34% | 37% | 60% | 60% | 3% | – | – | – | –
6 | DDYSSSRDGYGGS [SEQ ID NO: 1] | 88% | 12% | 97% | 3% | – | – | – | – | – | –
7 | IGSRGDRSGFGKF [SEQ ID NO: 6] | 1% | 96% | 2% | 69% | 4% | 29% | – | – | – | –
8 | D-S-H-K-W-H-R-D-F-F-Y-S-D (DSHKWHRDFFYSD; not fully specified (C-terminus); printed as D-S-H-K-W-H-R-D-F-F-Y-S-D) [Peptide 0608-35] | – | – | – | – | – | – | 73% | 92% | – | –
9 | F-F-D-S-K-K-F-S-R-D-H-I-E-S-D (FFDSKKFSRDHIESD) [Peptide 0612-35] | – | – | – | – | – | – | 63% | 90% | 97% | –
10 | F-F-D-S-H-K-W-H-R-D-F-F-Y-S-D (FFDSHKWHRDFFYSD) [Peptide 0612-37] | – | – | – | – | – | – | 88% | 96 ** % | 100% | –
11 | F-F-D-S-K-H-K-S-R-D-F-V-Y-S-D (FFDSKHKSRDFVYSD) [Peptide 0612-29] | – | – | – | – | – | – | 77% | 92% | 100% | –
12 | F-F-D-S-K-H-L-S-R-E-W-M-W-S-D (FFDSKHLSREWMWSD) [Peptide 0612-26] | – | – | – | – | – | – | 73% | 97% | 100% | –
13 | D-S-K-K-H-F-R-D-K-L-Y-S-D (DSKKHFRDKLYSD; not fully specified (C-terminus); printed as D-S-K-K-H-F-R-D-K-L-Y-S-D) [Peptide 0708-22] | – | – | – | – | – | – | 37% | 92% | – | 43
14 | D-S-K-K-F-K-R-D-F-L-F-S-D (DSKKFKRDFLFSD; not fully specified (C-terminus); printed as D-S-K-K-F-K-R-D-F-L-F-S-D) [Peptide 0708-26] | – | – | – | – | – | – | 35% | 97% | – | 23
